Experimental data as given in article PMC11890865.

Legend:
Assay in all cases: cryo-EM structure; ZorAB complex co-expressed from one operon and co-purified in LMNG; TBS (100 mM Tris, 150 mM NaCl, 1 mM EDTA, pH 8.0) plus 0.02% LMNG; Quantifoil Au grids, Titan Krios G4 at 300 kV
[1] = target: ZorA I from Shewanella sp. ANA-3 (Zorya type I) (Shewanella sp. strain ANA-3)
[2] = target: ZorA II from Sulfuricurvum kujiense DSM 16994 (Zorya type II) (Sulfuricurvum kujiense DSM 16994)
[3] = target: ZorB I from Shewanella sp. ANA-3 (Zorya type I) (Shewanella sp. strain ANA-3)
[4] = target: ZorB II from Sulfuricurvum kujiense DSM 16994 (Zorya type II) (Sulfuricurvum kujiense DSM 16994)

“ZorA I from Shewanella sp. ANA-3 (Zorya type I) (natural protein)” was tested, and the stoichiometry N [1] was 5.
“ZorA II from Sulfuricurvum kujiense DSM 16994 (Zorya type II) (natural protein)” showed a stoichiometry N [2] of 5.
“ZorB I from Shewanella sp. ANA-3 (Zorya type I) (natural protein)” showed a stoichiometry N [3] of 2.
Substance “ZorB II from Sulfuricurvum kujiense DSM 16994 (Zorya type II) (natural protein)” has a stoichiometry N [4] of 2.
